Results as given in paper PMC7971322, “Insights into the mechanism regulating the differential expression of the P28-OMP outer membrane proteins in obligatory intracellular pathogen Ehrlichia chaffeensis”.

Tests used:
[1] = biological target: T1, rTr1 (Ehrlichia chaffeensis) (UniProt Q2GF81); assay: DNase I footprinting; settings: EMSA/footprint: 10 mM Tris-HCl pH 7.5, 100 mM NaCl, 1 mM DTT, 10% glycerol, 25 C, SPR: 10 mM Tris-HCl pH 7.5, 100 mM NaCl, 0.05% Tween 20, 25 C
T1 sequence: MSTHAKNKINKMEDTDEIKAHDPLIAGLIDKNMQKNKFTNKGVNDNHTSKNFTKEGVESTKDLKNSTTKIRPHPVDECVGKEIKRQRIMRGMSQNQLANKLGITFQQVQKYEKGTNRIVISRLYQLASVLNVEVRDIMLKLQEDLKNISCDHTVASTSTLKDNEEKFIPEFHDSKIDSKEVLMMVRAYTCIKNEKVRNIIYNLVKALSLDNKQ

[2] = biological target: T2, rEcxR (Ehrlichia chaffeensis) (UniProt Q2GG40); assay: EMSA; settings: EMSA/footprint: 10 mM Tris-HCl pH 7.5, 100 mM NaCl, 1 mM DTT, 10% glycerol, 25 C, SPR: 10 mM Tris-HCl pH 7.5, 100 mM NaCl, 0.05% Tween 20, 25 C
T2 sequence: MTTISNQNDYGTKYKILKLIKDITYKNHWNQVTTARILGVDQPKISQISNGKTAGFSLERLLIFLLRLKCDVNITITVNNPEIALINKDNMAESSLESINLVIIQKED

[3] = biological target: T1, rTr1 (Ehrlichia chaffeensis); assay: EMSA; settings: EMSA/footprint: 10 mM Tris-HCl pH 7.5, 100 mM NaCl, 1 mM DTT, 10% glycerol, 25 C, SPR: 10 mM Tris-HCl pH 7.5, 100 mM NaCl, 0.05% Tween 20, 25 C
rEcxR = biological target: T3, rEcxR (Ehrlichia chaffeensis, UniProt Q2GG40 1-108); assay: SPR; EMSA/footprint: 10 mM Tris-HCl pH 7.5, 100 mM NaCl, 1 mM DTT, 10% glycerol, 25 C; SPR: 10 mM Tris-HCl pH 7.5, 100 mM NaCl, 1 mM DTT, 0.05% Tween 20, 25 C; settings: protein: recombinant, tags: C-terminal His (pET-29a), chain copies: 2, none in plain EMSA
T3 sequence: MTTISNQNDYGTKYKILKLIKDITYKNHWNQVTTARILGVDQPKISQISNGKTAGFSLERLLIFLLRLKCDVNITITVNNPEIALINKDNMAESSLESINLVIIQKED

rTr1 [4] = biological target: T4, rTr1 (Ehrlichia chaffeensis, UniProt Q2GF81 1-213); assay: as above; settings: protein: recombinant, tags: N-terminal His (pET-33b), chain copies: 2
T4 sequence: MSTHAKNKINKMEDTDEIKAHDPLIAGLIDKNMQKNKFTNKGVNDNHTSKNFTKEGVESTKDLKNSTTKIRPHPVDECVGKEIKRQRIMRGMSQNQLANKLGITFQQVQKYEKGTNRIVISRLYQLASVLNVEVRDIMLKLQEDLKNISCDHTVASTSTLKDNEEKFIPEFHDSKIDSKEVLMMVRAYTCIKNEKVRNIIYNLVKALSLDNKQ

rTr1 [5] = biological target: T4, rTr1; assay: competition; 50-fold unlabelled vs biotinylated region I, 1 uM rTr1; EMSA/footprint: 10 mM Tris-HCl pH 7.5, 100 mM NaCl, 1 mM DTT, 10% glycerol, 25 C; SPR: 10 mM Tris-HCl pH 7.5, 100 mM NaCl, 1 mM DTT, 0.05% Tween 20, 25 C; settings: protein: recombinant; tags: N-terminal His (pET-33b); chain copies: 2; blunt
rTr1 [6] = biological target: T4, rTr1; assay: competition; 50-fold unlabelled vs biotinylated region II, 1 uM rTr1; EMSA/footprint: 10 mM Tris-HCl pH 7.5, 100 mM NaCl, 1 mM DTT, 10% glycerol, 25 C; SPR: 10 mM Tris-HCl pH 7.5, 100 mM NaCl, 1 mM DTT, 0.05% Tween 20, 25 C; settings: protein: recombinant; tags: N-terminal His (pET-33b); chain copies: 2; blunt
rTr1 [7] = biological target: T4, rTr1; assay: EMSA; 1.8 uM rTr1; EMSA/footprint: 10 mM Tris-HCl pH 7.5, 100 mM NaCl, 1 mM DTT, 10% glycerol, 25 C; SPR: 10 mM Tris-HCl pH 7.5, 100 mM NaCl, 1 mM DTT, 0.05% Tween 20, 25 C; settings: protein: recombinant; tags: N-terminal His (pET-33b); chain copies: 2; blunt

**Q.** Which binding [1] does the source give for “ATGATATCAATGCACTTGTTATGAAAACTTTTTTGTAATTCATATATAACCTAATAGTGACAAATAAATTAACAATAGTAGAAGTGTCATATAAAAGCAAGTCAGAATATAAATTTTTGTATAAAATATCGGTAACTTTTGTAAGGAAAATTTAATATATTACGTCAGGTAAGTAATAGCAAAAAAACTGGTTAAGTATAGTATCATGTGTAAAGGTGAGAAAAACAGCACTTATA (double strand) [p28 promoter footprint fragment]” here?
**A.** Its binding is “binds”.

**Q.** Which binding [2] does the source give for “CCTATAACAAAGCAACCTATGTAAGATAAATCATGCATAAAGTGAATGCAATAGTTATTTAATGGATATATTCTATCTAGTTTGCTGGAATAGTATACTAATTATATAATATACAGAAATAACATATTATGCTTTATGAAATATAAGATAAAATTTATTTACTTTTTAGCTTGATTGGATCAATAATTTATATTAAACATGAAAGTCAGTTTGTCCGGGT (double strand) [tr1 promoter EMSA probe]” here?
**A.** The binding was “binds”.

**Q.** What about the binding [3] of the same molecule?
**A.** The binding was “binds”.

**Q.** “CCTATAACAAAGCAACCTATGTAAGATAAATCATGCATAAAGTGAATGCAATAGTTATTTAATGGATATATTCTATCTAGTTTGCTGGAATAGTATACTAATTATATAATATACAGAAATAACATATTATGCTTTATGAAATATAAGATAAAATTTATTTACTTTTTAGCTTGATTGGATCAATAATTTATATTAAACATGAAAGTCAGTTTGTCCGGGT (double strand) [tr1 promoter footprint fragment]” was tested. Which binding [1] did it give?
**A.** The binding was “binds”.

**Q.** Which binding [2] does the source give for “GAATTTGTGATTTGAAATAACAAGACTTAAATGTCGAATTTAGCTTCTGTCCTAGTGGATAAGTACTTTAGCAAGTGGTAAAAGCAAGTCTACTCATATTTTTATTAATTAAGTAGTAAAGTTAACTATAGATTTTATTAAAATTTTTATTCTAATCACTTTAAATATCAATTACTTTTGTTGTAAATTTGAAAGAAATTTTATATTCTAGACTTGCTTTTCTTTATTTCTTTCATTATTCTTAAATTTTTATTATCTTTTATAAAAGGTTTATTAAC (double strand) [omp-1B promoter EMSA probe]” here?
**A.** Its binding is “binds”.

**Q.** And the binding [3]?
**A.** The binding was “binds”.

**Q.** With “GAATTTGTGATTTGAAATAACAAGACTTAAATGTCGAATTTAGCTTCTGTCCTAGTGGATAAGTACTTTAGCAAGTGGTAAAAGCAAGTCTACTCATATTTTTATTAATTAAGTAGTAAAGTTAACTATAGATTTTATTAAAATTTTTATTCTAATCACTTTAAATATCAATTACTTTTGTTGTAAATTTGAAAGAAATTTTATATTCTAGACTTGCTTTTCTTTATTTCTTTCATTATTCTTAAATTTTTATTATCTTTTATAAAAGGTTTATTAAC (double strand) [omp-1B promoter footprint fragment]” as the molecule, how does the binding [1] read?
**A.** Its binding is “binds”.

**Q.** Which binding [1] does the source give for “GTGATAGGGAATGAATTCAGAGATATTCCTGCTATGATACCCAGTACCTCAACTCTCACAGGTAATCACTTTACTATAGTAACACTAAGTGTATGCCACTTTGGAGTGGAACTTGGAGGAAGGTTTAACTTTTAATTTTATTATTGCCACATGTTAAAAATAATCTAAACTTGTTTTTATTATTGCTGCAGGTAAATAAAAATAGTGGCAAAAGAATGTAGCAATAAGAGGGGGGGGGGGGGGACTAGTTTATAAGTGCTGTTTTTCTCACCTTTA (double strand) [p28 II footprint fragment]” here?
**A.** The binding was “binds”.

B1: Tr1 protected region I (p28 promoter) (dsDNA)
DNA 1: TACACATGATACTATACTTAACCAGTTTTTTTGCTATTACTTACCTGACG
DNA 2: CGTCAGGTAAGTAATAGCAAAAAAACTGGTTAAGTATAGTATCATGT
**Q.** Does B1 bind (rEcxR; 5' overhang 3 nt on strand 1 (reverse oligo as printed is 47 nt))?
**A.** Result: no binding

**Q.** What about the Kd (rTr1 [4]; none in plain EMSA, 5' overhang 3 nt on strand 1 (reverse oligo as printed is 47 nt)) of the same molecule?
**A.** Its Kd is 2.52 nM.

B2: Tr1 protected region II (omp-1B promoter) (dsDNA)
DNA 1: AGTAAAGTTAACTATAGATTTTATTAAAATTTTTATTCTAATCACTTTAA
DNA 2: TTAAAGTGATTAGAATAAAAATTTTAATAAAATCTATAGTTAACTTTACT
**Q.** Does B2 bind (rEcxR; blunt)?
**A.** Result: no binding

**Q.** And the Kd (rTr1 [4]; none in plain EMSA, blunt)?
**A.** The Kd was 15.5 nM.

B3: Tr1 protected region I, mutated motif (dsDNA)
DNA 1: TACACATGATGGGGGGCTTAACCAGTTTTTTTGCTATTACTTACCTGACG
DNA 2: CGTCAGGTAAGTAATAGCAAAAAAACTGGTTAAGCCCCCCATCATGTGTA
**Q.** Does B3 bind (rTr1 [5])?
**A.** Result: no binding

B4: Tr1 protected region II, mutated motif (dsDNA)
DNA 1: AGTAAAGTTAGGGGGGGATTTTATTAAAATTTTTATTCTAATCACTTTAA
DNA 2: TTAAAGTGATTAGAATAAAAATTTTAATAAAATCCCCCCCTAACTTTACT
**Q.** Does B4 bind (rTr1 [6])?
**A.** Result: no binding

B5: Tr1 protected region III (tr1 promoter) (dsDNA)
DNA 1: TAAAGCATAATATGTTATTTCTGTATATTATATAAT
DNA 2: ATTATATAATATACAGAAATAACATATTATGCTTTA
**Q.** Does B5 bind (rTr1 [7])?
**A.** Result: binds

B6: Tr1 protected region IV (upstream of p28) (dsDNA)
DNA 1: TAATCACTTTACTATAGTAACACTAAGTGTATGCCACTTTGGAGTGGAAC
DNA 2: GTTCCACTCCAAAGTGGCATACACTTAGTGTTACTATAGTAAAGTGATTA
**Q.** With B6 as the molecule, how does the Kd (rTr1 [4]; label: biotin for SPR (note on S35), blunt) read?
**A.** Its Kd is 14 nM.
